For this test, the target named is T1, PhFc-Cε3/Cε41-222 (human, UniProt P01854 211-427, N-linked carbohydrate attached at N394 (NAG/MAN residues 694-699 in Table 1)).
T1 construct: Fc fragment of human IgE (Cε3 and Cε4 domains); It is a dimer of two identical chains with an interchain disulfide near residue 329; Produced in Trichoplusia ni (Hi-5) insect cells; also called human IgE-Fc Cε3/Cε4 domains; IgE-Fc
Kind of test: complex formation and co-crystallization, crystal form I. On the procedure: The structure was determined by molecular replacement techniques as described in Methods. Manual model building was done with the program O¹⁸ and refinement carried out with CNS¹⁹. Current refinement statistics for the complex are shown in Table 3, with an overall R-free of 29.3% and R-cryst of 27.0% to 3.25 Å.
Human IgE-Fc Cε3/Cε4 domains and a carbohydrate mutant of the FcεRIα¹¹ were expressed in insect cells essentially as described for IgE-Fc Cε3/Cε4 in 60/189,403. Complexes of wt-Fc-Cε3/Cε4 and wt-FcεRIα produced only poorly diffracting crystals. Since the receptor is heavily glycosylated (˜33% carbohydrate by weight), and the carbohydrate sites are dispersed on the receptor surface, a subset of these attachment sites was removed to improve the protein crystallization. A previously-described carbohydrate mutant of the receptor¹⁷ lacking three of the seven wild type carbohydrate sites (residues 74, 135, and 140) located on both D1 and D2 in the receptor structure. The triple receptor mutant, FcεRIαΔ4-6 was subcloned into the pvl1392 baculovirus transfer vector and recombinant virus produced. The mutant receptor was active, expressed well and was purified by affinity chromatography similarly to the wt protein. […]

T1 sequence (P01854 other isoform, or with tags, fused parts or gaps limits assumed): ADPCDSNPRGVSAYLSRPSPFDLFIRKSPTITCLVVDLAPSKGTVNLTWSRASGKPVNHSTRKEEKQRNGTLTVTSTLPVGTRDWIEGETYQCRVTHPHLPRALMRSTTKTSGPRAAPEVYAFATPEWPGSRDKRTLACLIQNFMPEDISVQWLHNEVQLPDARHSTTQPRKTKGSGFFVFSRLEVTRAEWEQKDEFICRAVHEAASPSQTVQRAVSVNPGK

B1: PhFcεRIα1-176 (receptor)
chain: VPQKPKVSLNPPWNRIFKGENVTLTCNGNNFFEVSSTKWFHNGSLSEETNSSLNIVNAKFEDSGEYKCQHQQVNESEPVYLEVFSDWLLLQASAEVVMEGQPLFLRCHGWRNWDVYKVIYYKDGEALKYWYENHNISITNATVEDSGTYYCTGKVWQLDYESEPLNITVIKAPREK
modifications: N-linked carbohydrate (seven native attachment sites; about 33% carbohydrate by weight)
notes: also called hFcεRIα1-176 protein; wild type (wt) FcεRIα
As to B1, the binding result was “binds”.

The values above are taken from US20030003502A1 (published 2003).
